Laboratory results as given in PMC9482650, “Quantitative fragmentomics allow affinity mapping of interactomes” (Nature Communications, 2022).

T1: DLG3_1, Q92796
T1 sequence (Q92796 125-227, limits assumed, looked up): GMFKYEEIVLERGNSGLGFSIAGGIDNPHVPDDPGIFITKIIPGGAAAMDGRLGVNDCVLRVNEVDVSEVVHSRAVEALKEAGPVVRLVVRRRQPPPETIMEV

T2: APBA2_1, Q99767
T2 sequence (Q99767 563-664, limits assumed, looked up): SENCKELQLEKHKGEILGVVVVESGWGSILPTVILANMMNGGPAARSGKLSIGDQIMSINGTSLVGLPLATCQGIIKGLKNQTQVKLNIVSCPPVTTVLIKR

T3: SNTG2, Q9NY99
T3 sequence (Q9NY99 68-166, limits assumed, looked up): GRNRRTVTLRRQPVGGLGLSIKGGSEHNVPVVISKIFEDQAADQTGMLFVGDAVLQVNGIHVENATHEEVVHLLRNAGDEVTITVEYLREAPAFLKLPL

T4: NHERF3_4, Q5T2W1
T4 sequence (Q5T2W1 373-468, limits assumed, looked up): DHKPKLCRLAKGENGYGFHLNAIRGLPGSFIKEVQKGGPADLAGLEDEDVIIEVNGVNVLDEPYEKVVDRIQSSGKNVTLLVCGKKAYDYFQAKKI

T5: DLG3_2, Q92796
T5 sequence (Q92796 221-321, limits assumed, looked up): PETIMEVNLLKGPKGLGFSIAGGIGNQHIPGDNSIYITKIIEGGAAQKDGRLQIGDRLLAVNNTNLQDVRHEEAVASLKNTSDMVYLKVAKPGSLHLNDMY

T6: PARD3B_1, Q8TEW8
T6 sequence (Q8TEW8 196-299, limits assumed, looked up): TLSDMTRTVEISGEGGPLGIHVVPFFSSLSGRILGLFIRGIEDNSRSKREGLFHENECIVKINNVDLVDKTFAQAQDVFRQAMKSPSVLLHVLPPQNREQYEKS

T7: SHANK1, Q9Y566
T7 sequence (Q9Y566 658-767, limits assumed, looked up): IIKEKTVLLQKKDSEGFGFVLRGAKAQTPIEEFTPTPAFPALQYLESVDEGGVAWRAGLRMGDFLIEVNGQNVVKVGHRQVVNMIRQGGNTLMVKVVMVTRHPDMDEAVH

T8: DVL3, Q92997
T8 sequence (Q92997 244-331, limits assumed, looked up): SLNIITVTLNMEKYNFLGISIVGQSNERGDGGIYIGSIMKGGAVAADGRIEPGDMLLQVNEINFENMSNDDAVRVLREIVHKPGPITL

T9: MPDZ_12, O75970
T9 sequence (O75970 1857-1958, limits assumed, looked up): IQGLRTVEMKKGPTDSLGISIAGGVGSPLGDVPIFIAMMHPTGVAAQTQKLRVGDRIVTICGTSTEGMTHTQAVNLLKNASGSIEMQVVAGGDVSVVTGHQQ

T10: RHPN1, Q8TCX5
T10 sequence (Q8TCX5 508-602, limits assumed, looked up): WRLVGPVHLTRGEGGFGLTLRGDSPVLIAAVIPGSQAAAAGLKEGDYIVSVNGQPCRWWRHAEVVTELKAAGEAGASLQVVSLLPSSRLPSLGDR


What follows are binders tested against T1, DLG3_1, Q92796 (assay: holdup assay). Conditions: plain residues with an end cap or a label only (N-terminal biotin on a linker: ado-ado).
Parameters: key: below the threshold = too weak to quantify, mostly under pKd 3.1 to 4
In the case of WRSKRTDTLL [RAMP3, O60896], the pKd is reported as “below the threshold”.
With VISERNSTTV [C3AR1, Q16581] the pKd was 4.06.

What follows are binders tested against LNX1_1, Q8TBB1 (assay: holdup assay). Conditions: plain residues with an end cap or a label only (N-terminal biotin on a linker: ado-ado).
Sequence of LNX1_1, Q8TBB1 (Q8TBB1 261-371): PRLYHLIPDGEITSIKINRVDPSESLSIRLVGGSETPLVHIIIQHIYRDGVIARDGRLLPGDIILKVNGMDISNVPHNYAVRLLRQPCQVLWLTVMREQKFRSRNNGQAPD
Parameters: key: below the threshold = too weak to quantify, mostly under pKd 3.1 to 4
In the case of WRSKRTDTLL [RAMP3, O60896], the pKd is reported as “below the threshold”.
With VISERNSTTV [C3AR1, Q16581] the pKd was 3.61.

These binders were tested against IL16_3, Q14005 (assay: holdup assay). Conditions: plain residues with an end cap or a label only (N-terminal biotin on a linker: ado-ado).
Sequence of IL16_3, Q14005 (Q14005 1107-1207): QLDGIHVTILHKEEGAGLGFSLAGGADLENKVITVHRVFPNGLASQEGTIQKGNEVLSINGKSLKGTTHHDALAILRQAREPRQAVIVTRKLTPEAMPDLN
Parameters: key: below the threshold = too weak to quantify, mostly under pKd 3.1 to 4
For WRSKRTDTLL [RAMP3, O60896], the pKd was “below the threshold”.
In the case of VISERNSTTV [C3AR1, Q16581], the pKd is reported as “below the threshold”.

What follows are binders tested against T2, APBA2_1, Q99767 (assay: holdup assay). Conditions: plain residues with an end cap or a label only (N-terminal biotin on a linker: ado-ado).
Parameters: key: below the threshold = too weak to quantify, mostly under pKd 3.1 to 4
WRSKRTDTLL [RAMP3, O60896] was tested, and the pKd was “below the threshold”.
In the case of VISERNSTTV [C3AR1, Q16581], the pKd is reported as “below the threshold”.

The binders below were run against MAST2, Q6P0Q8 (assay: holdup assay). Conditions: plain residues with an end cap or a label only (N-terminal biotin on a linker: ado-ado).
Sequence of MAST2, Q6P0Q8 (Q6P0Q8 1099-1202): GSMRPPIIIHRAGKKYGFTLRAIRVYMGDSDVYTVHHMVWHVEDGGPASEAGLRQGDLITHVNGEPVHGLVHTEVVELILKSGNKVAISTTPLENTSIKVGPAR
Parameters: key: below the threshold = too weak to quantify, mostly under pKd 3.1 to 4
Work on WRSKRTDTLL [RAMP3, O60896] yielded a pKd of 5.45.
For VISERNSTTV [C3AR1, Q16581], the pKd was 5.2.

These binders were tested against SCRIB_1, Q14160 (assay: holdup assay). Conditions: plain residues with an end cap or a label only (N-terminal biotin on a linker: ado-ado).
Sequence of SCRIB_1, Q14160 (Q14160 718-814): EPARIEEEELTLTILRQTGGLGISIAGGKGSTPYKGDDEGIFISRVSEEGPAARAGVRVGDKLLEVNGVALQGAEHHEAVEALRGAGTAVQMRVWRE
Parameters: key: below the threshold = too weak to quantify, mostly under pKd 3.1 to 4
WRSKRTDTLL [RAMP3, O60896] showed a pKd of 3.92.
Binder VISERNSTTV [C3AR1, Q16581] has a pKd of 3.72.

The binders below were run against FRMPD2_1, Q68DX3 (assay: holdup assay). Conditions: plain residues with an end cap or a label only (N-terminal biotin on a linker: ado-ado).
Sequence of FRMPD2_1, Q68DX3 (Q68DX3 770-861): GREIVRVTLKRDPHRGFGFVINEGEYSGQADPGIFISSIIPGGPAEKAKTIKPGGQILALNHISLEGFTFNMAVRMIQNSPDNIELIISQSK
Parameters: key: below the threshold = too weak to quantify, mostly under pKd 3.1 to 4
WRSKRTDTLL [RAMP3, O60896] was tested, and the pKd was “below the threshold”.
For VISERNSTTV [C3AR1, Q16581], the pKd was “below the threshold”.

These binders were tested against T3, SNTG2, Q9NY99 (assay: holdup assay). Conditions: plain residues with an end cap or a label only (N-terminal biotin on a linker: ado-ado).
Parameters: key: below the threshold = too weak to quantify, mostly under pKd 3.1 to 4
With WRSKRTDTLL [RAMP3, O60896] the pKd was “below the threshold”.
For VISERNSTTV [C3AR1, Q16581], the pKd was 3.61.

What follows are binders tested against LIMK2, P53671 (assay: holdup assay). Conditions: plain residues with an end cap or a label only (N-terminal biotin on a linker: ado-ado).
Sequence of LIMK2, P53671 (P53671 143-248): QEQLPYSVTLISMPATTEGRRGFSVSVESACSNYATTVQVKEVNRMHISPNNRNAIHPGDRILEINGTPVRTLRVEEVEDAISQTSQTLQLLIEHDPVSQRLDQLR
Parameters: key: below the threshold = too weak to quantify, mostly under pKd 3.1 to 4
For WRSKRTDTLL [RAMP3, O60896], the pKd was “below the threshold”.
VISERNSTTV [C3AR1, Q16581] was tested, and the pKd was “below the threshold”.

Each binder was assayed against T4, NHERF3_4, Q5T2W1 (assay: holdup assay). Conditions: plain residues with an end cap or a label only (N-terminal biotin on a linker: ado-ado).
Parameters: key: below the threshold = too weak to quantify, mostly under pKd 3.1 to 4
With WRSKRTDTLL [RAMP3, O60896] the pKd was 3.53.
With VISERNSTTV [C3AR1, Q16581] the pKd was “below the threshold”.

What follows are binders tested against SCRIB_2, Q14160 (assay: holdup assay). Conditions: plain residues with an end cap or a label only (N-terminal biotin on a linker: ado-ado).
Sequence of SCRIB_2, Q14160 (Q14160 857-960): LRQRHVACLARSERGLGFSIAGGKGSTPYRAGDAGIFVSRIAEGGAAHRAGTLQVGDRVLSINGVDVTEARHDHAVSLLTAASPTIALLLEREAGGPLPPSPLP
Parameters: key: below the threshold = too weak to quantify, mostly under pKd 3.1 to 4
With WRSKRTDTLL [RAMP3, O60896] the pKd was “below the threshold”.
Work on VISERNSTTV [C3AR1, Q16581] yielded a pKd of 3.71.

What follows are binders tested against T5, DLG3_2, Q92796 (assay: holdup assay). Conditions: plain residues with an end cap or a label only (N-terminal biotin on a linker: ado-ado).
Parameters: key: below the threshold = too weak to quantify, mostly under pKd 3.1 to 4
With WRSKRTDTLL [RAMP3, O60896] the pKd was “below the threshold”.
Binder VISERNSTTV [C3AR1, Q16581] has a pKd of 4.42.

These binders were tested against GRID2IP_2, A4D2P6 (assay: holdup assay). Conditions: plain residues with an end cap or a label only (N-terminal biotin on a linker: ado-ado).
Sequence of GRID2IP_2, A4D2P6 (A4D2P6 272-370): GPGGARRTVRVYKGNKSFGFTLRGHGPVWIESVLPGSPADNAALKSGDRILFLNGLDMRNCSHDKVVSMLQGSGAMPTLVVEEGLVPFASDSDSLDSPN
Parameters: key: below the threshold = too weak to quantify, mostly under pKd 3.1 to 4
For WRSKRTDTLL [RAMP3, O60896], the pKd was “below the threshold”.
VISERNSTTV [C3AR1, Q16581] showed a pKd of 3.66.

Each binder was assayed against GRIP2_4, Q9C0E4 (assay: holdup assay). Conditions: plain residues with an end cap or a label only (N-terminal biotin on a linker: ado-ado).
Sequence of GRIP2_4, Q9C0E4 (Q9C0E4 446-548): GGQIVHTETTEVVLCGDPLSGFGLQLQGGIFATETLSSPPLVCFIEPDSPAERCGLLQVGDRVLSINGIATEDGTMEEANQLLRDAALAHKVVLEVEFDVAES
Parameters: key: below the threshold = too weak to quantify, mostly under pKd 3.1 to 4
In the case of WRSKRTDTLL [RAMP3, O60896], the pKd is reported as “below the threshold”.
VISERNSTTV [C3AR1, Q16581] was tested, and the pKd was “below the threshold”.

Each binder was assayed against T6, PARD3B_1, Q8TEW8 (assay: holdup assay). Conditions: plain residues with an end cap or a label only (N-terminal biotin on a linker: ado-ado).
Parameters: key: below the threshold = too weak to quantify, mostly under pKd 3.1 to 4
Binder WRSKRTDTLL [RAMP3, O60896] has a pKd of 4.32.
In the case of VISERNSTTV [C3AR1, Q16581], the pKd is reported as “below the threshold”.

What follows are binders tested against TJP1_2, Q07157 (assay: holdup assay). Conditions: plain residues with an end cap or a label only (N-terminal biotin on a linker: ado-ado).
Sequence of TJP1_2, Q07157 (Q07157 181-274): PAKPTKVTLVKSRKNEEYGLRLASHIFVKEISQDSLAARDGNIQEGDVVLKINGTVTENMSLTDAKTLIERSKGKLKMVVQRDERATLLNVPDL
Parameters: key: below the threshold = too weak to quantify, mostly under pKd 3.1 to 4
With WRSKRTDTLL [RAMP3, O60896] the pKd was 3.55.
In the case of VISERNSTTV [C3AR1, Q16581], the pKd is reported as “below the threshold”.

These binders were tested against Inadl_8, Q8NI35 (assay: holdup assay). Conditions: plain residues with an end cap or a label only (N-terminal biotin on a linker: ado-ado).
Sequence of Inadl_8, Q8NI35 (Q8NI35 1425-1530): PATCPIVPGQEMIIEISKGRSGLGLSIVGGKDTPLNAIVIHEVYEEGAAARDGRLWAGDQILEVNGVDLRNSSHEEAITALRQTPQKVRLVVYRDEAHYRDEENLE
Parameters: key: below the threshold = too weak to quantify, mostly under pKd 3.1 to 4
For WRSKRTDTLL [RAMP3, O60896], the pKd was “below the threshold”.
VISERNSTTV [C3AR1, Q16581] gave a pKd of 3.54.

Each binder was assayed against T7, SHANK1, Q9Y566 (assay: holdup assay). Conditions: plain residues with an end cap or a label only (N-terminal biotin on a linker: ado-ado).
Parameters: key: below the threshold = too weak to quantify, mostly under pKd 3.1 to 4
WRSKRTDTLL [RAMP3, O60896] was tested, and the pKd was “below the threshold”.
VISERNSTTV [C3AR1, Q16581] was tested, and the pKd was 3.49.

What follows are binders tested against Inadl_6, Q8NI35 (assay: holdup assay). Conditions: plain residues with an end cap or a label only (N-terminal biotin on a linker: ado-ado).
Sequence of Inadl_6, Q8NI35 (Q8NI35 1058-1167): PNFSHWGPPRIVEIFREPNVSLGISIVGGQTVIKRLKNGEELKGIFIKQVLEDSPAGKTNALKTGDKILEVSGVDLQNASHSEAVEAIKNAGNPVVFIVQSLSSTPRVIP
Parameters: key: below the threshold = too weak to quantify, mostly under pKd 3.1 to 4
For WRSKRTDTLL [RAMP3, O60896], the pKd was “below the threshold”.
For VISERNSTTV [C3AR1, Q16581], the pKd was “below the threshold”.

These binders were tested against LNX1_2, Q8TBB1 (assay: holdup assay). Conditions: plain residues with an end cap or a label only (N-terminal biotin on a linker: ado-ado).
Sequence of LNX1_2, Q8TBB1 (Q8TBB1 371-470): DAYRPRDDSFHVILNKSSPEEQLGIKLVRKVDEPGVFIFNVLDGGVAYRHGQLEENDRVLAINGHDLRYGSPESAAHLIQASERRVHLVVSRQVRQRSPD
Parameters: key: below the threshold = too weak to quantify, mostly under pKd 3.1 to 4
In the case of WRSKRTDTLL [RAMP3, O60896], the pKd is reported as “below the threshold”.
In the case of VISERNSTTV [C3AR1, Q16581], the pKd is reported as 3.78.

Each binder was assayed against GOPC, Q9HD26 (assay: holdup assay). Conditions: plain residues with an end cap or a label only (N-terminal biotin on a linker: ado-ado).
Parameters: key: below the threshold = too weak to quantify, mostly under pKd 3.1 to 4
Work on WRSKRTDTLL [RAMP3, O60896] yielded a pKd of 3.61.
VISERNSTTV [C3AR1, Q16581] showed a pKd of 3.92.

The binders below were run against MAST1, Q9Y2H9 (assay: holdup assay). Conditions: plain residues with an end cap or a label only (N-terminal biotin on a linker: ado-ado).
Sequence of MAST1, Q9Y2H9 (Q9Y2H9 962-1065): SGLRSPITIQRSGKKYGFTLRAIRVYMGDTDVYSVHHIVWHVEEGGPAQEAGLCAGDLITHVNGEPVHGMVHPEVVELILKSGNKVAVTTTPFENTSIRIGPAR
Parameters: key: below the threshold = too weak to quantify, mostly under pKd 3.1 to 4
WRSKRTDTLL [RAMP3, O60896] showed a pKd of 3.84.
In the case of VISERNSTTV [C3AR1, Q16581], the pKd is reported as 3.74.

What follows are binders tested against PARD3_3, Q8TEW0 (assay: holdup assay). Conditions: plain residues with an end cap or a label only (N-terminal biotin on a linker: ado-ado).
Sequence of PARD3_3, Q8TEW0 (Q8TEW0 582-685): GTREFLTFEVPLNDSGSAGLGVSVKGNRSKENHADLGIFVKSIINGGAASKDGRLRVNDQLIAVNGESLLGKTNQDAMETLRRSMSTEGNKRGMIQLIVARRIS
Parameters: key: below the threshold = too weak to quantify, mostly under pKd 3.1 to 4
Work on WRSKRTDTLL [RAMP3, O60896] yielded a pKd of 3.48.
VISERNSTTV [C3AR1, Q16581] was tested, and the pKd was “below the threshold”.

These binders were tested against GORASP2, Q9H8Y8 (assay: holdup assay). Conditions: plain residues with an end cap or a label only (N-terminal biotin on a linker: ado-ado).
Parameters: key: below the threshold = too weak to quantify, mostly under pKd 3.1 to 4
For WRSKRTDTLL [RAMP3, O60896], the pKd was “below the threshold”.
In the case of VISERNSTTV [C3AR1, Q16581], the pKd is reported as “below the threshold”.

What follows are binders tested against T8, DVL3, Q92997 (assay: holdup assay). Conditions: plain residues with an end cap or a label only (N-terminal biotin on a linker: ado-ado).
Parameters: key: below the threshold = too weak to quantify, mostly under pKd 3.1 to 4
In the case of WRSKRTDTLL [RAMP3, O60896], the pKd is reported as “below the threshold”.
VISERNSTTV [C3AR1, Q16581] was tested, and the pKd was “below the threshold”.

These binders were tested against T9, MPDZ_12, O75970 (assay: holdup assay). Conditions: plain residues with an end cap or a label only (N-terminal biotin on a linker: ado-ado).
Parameters: key: below the threshold = too weak to quantify, mostly under pKd 3.1 to 4
WRSKRTDTLL [RAMP3, O60896] was tested, and the pKd was “below the threshold”.
With VISERNSTTV [C3AR1, Q16581] the pKd was “below the threshold”.

Each binder was assayed against T10, RHPN1, Q8TCX5 (assay: holdup assay). Conditions: plain residues with an end cap or a label only (N-terminal biotin on a linker: ado-ado).
Parameters: key: below the threshold = too weak to quantify, mostly under pKd 3.1 to 4
In the case of WRSKRTDTLL [RAMP3, O60896], the pKd is reported as 4.04.
VISERNSTTV [C3AR1, Q16581] gave a pKd of 4.16.
